The source of these data is patent US20220168438A1 (Daiichi Sankyo, published 2022).

One experiment addresses T1, human CLDN4 (human, UniProt O14493 1-209).
T1 construct: whole, on cells
T1 sequence (looked up): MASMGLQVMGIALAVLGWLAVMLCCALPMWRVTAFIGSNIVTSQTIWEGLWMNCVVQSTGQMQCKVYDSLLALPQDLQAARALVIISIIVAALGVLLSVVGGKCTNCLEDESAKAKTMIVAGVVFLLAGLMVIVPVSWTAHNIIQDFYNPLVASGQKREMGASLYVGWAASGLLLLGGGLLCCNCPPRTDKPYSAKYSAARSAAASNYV
Briefly: flow cytometry on transiently transfected 293T cells. As to the method:
(§1) Binding activity of the mouse anti-CLDN6 antibodies produced in Example 6 to human CLDN6 and its family molecules, CLDN3, CLDN4, and CLDN9, was evaluated by using a flow cytometry method. Human CLDN3/pCMV6-Entry, human CLDN4/pCMV6-Entry, human CLDN6/pCMV-Entry, human CLDN9/pCMV6-Entry, or pCMV6-Entry purchased from OriGene Technologies, Inc. was transiently transferred into 293T cells (Thermo Fisher Scientific, HCL4517) by using Lipofectamine 2000 (Thermo Fisher Scientific), and the cells were cultured under conditions of 37° C. and 5% CO₂ overnight, and then a cell suspension was prepared. The transfected 293T cell suspension was centrifuged to remove the supernatant, and a mouse anti-CLDN6 antibody (clone number: B1 or C7) or a mouse IgG1 control antibody (R&D Systems, Inc.) was then added and suspended to a final concentration of 30 μg/mL, 10 μg/mL, 3.3 μg/mL, or 1.1 μg/mL, and the resultant was left to stand at 4° C. for 1 hour. The cells were washed twice with Dulbecco's phosphate buffered saline (Sigma-Aldrich Co. LLC) containing 5% fetal bovine serum (Hyclone) (hereinafter, referred to as 5% FBS-containing PBS), and FLUORESCEIN-CONJUGATED GOAT IGG FRACTION TO MOUSE IGG (WHOLE MOLECULE) (MP Biomedicals, Inc.) 500-fold diluted with 5% FBS-containing PBS was then added thereto, and the cells were suspended and left to stand at 4° C. for 1 hour. After washing twice with 5% FBS-containing PBS, detection was carried out by using a flow cytometer (FC500; Beckman Coulter, Inc.). Data analysis was carried out by using FlowJo (Tree Star, Inc.). To confirm each transfection, the cells were permeabilized with 0.25% Tween 20-containing PBS, and then a mouse anti-FLAG antibody (Sigma-Aldrich Co. LLC) was used. […] In each graph in FIG. 11, the ordinate represents FITC fluorescence intensity indicating the amount of the binding antibody and the abscissa represents antibody concentrations.
(§2) The binding activity of the humanized anti-CLDN6 antibody produced in Example 10 to human CLDN6 and its family molecules, CLDN3, CLDN4, and CLDN9, was evaluated by using a flow cytometry method.
(A flow cytometer gives signals particle by particle.)

For a further experiment, the target named is T2, human CLDN3 (human, UniProt O15551 1-220).
T2 construct: whole, on cells
T2 sequence (looked up): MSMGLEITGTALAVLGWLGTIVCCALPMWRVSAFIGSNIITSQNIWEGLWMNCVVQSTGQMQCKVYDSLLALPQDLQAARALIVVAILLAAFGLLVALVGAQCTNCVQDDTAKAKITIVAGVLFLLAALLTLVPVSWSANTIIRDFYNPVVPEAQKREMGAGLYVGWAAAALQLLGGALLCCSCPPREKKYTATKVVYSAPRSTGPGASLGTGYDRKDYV
The experiment is described as above. As to the method:
as §1, §2

Experiment [1] concerns the target T3, human CLDN6 (human, UniProt P56747 1-220).
T3 construct: Four-transmembrane protein; It was expressed on 293T cells from human CLDN6/pCMV-Entry (OriGene) and on CHO-K1 cells by cDNA transfection; it was endogenous in the NTERA-2 lysate used for immunoprecipitation; also called claudin-6; human claudin-6
T3 sequence: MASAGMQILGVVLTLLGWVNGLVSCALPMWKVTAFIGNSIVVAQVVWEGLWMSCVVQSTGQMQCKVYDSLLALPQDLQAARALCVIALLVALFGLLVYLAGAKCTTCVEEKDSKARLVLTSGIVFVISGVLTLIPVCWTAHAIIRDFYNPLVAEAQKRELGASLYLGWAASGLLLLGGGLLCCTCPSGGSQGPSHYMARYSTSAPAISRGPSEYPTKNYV
As to the kind of experiment: immunoprecipitation from NTERA-2 cell lysate with 218B1, SDS-PAGE, mass spectrometry of the 18 kDa band. As to the method: 2×10⁷ NTERA-2 cells were collected and washed twice with PBS. The cells were collected by using a cell scraper, and centrifuged at 1500 rpm for 5 minutes. After the supernatant was removed, the cells were resuspended in 2 mL of the lysis buffer, and treated at 4° C. for 30 minutes. The resultant was centrifuged (13000 rpm, 20 minutes, 4° C.) to prepare a cell lysate. Protein G Sepharose/lysis buffer (50% slurry; 180 μL) was added to the cell lysate, and the resultant was rotated at 4° C. for 30 minutes and then centrifuged at 4° C. for 1 hour, and the supernatant was collected. The 218B1 antibody (about 9 μg) was added to the supernatant, and the resultant was rotated at 4° C. for 30 minutes, to which Protein G Sepharose/lysis buffer (50% slurry; 180 μL) was then added, and the resultant was rotated at 4° C. for 1 hour. The Protein G Sepharose was washed six times with the lysis buffer (1 mL), and then resuspended in 1×SDS sample buffer. After the suspension was treated at 100° C. for 5 minutes, the solution was collected as a sample for SDS-PAGE. SDS-PAGE was carried out in the same manner as in 2-2), and the electrophoresis gel was stained with CBB. The part corresponding to 18 kDa was cut out of the electrophoresis gel, and subjected to mass spectrometry.

Experiment [2] has as its target T4, human CLDN9 (human, UniProt O95484 1-217).
T4 construct: Expressed on 293T cells from human CLDN9/pCMV6-Entry (OriGene); Transfection was confirmed with an anti-FLAG antibody
T4 sequence: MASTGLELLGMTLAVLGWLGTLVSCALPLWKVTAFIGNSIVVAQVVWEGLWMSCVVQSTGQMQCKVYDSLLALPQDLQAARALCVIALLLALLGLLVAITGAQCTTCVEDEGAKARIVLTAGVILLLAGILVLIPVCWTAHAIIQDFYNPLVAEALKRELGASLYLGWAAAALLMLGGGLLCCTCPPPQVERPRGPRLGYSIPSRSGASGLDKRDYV
As to the kind of experiment: flow cytometry on transiently transfected 293T cells, 1.1-30 µg/mL. The protocol:
Binding activity of the mouse anti-CLDN6 antibodies produced in Example 6 to human CLDN6 and its family molecules, CLDN3, CLDN4, and CLDN9, was evaluated by using a flow cytometry method. Human CLDN3/pCMV6-Entry, human CLDN4/pCMV6-Entry, human CLDN6/pCMV-Entry, human CLDN9/pCMV6-Entry, or pCMV6-Entry purchased from OriGene Technologies, Inc. was transiently transferred into 293T cells (Thermo Fisher Scientific, HCL4517) by using Lipofectamine 2000 (Thermo Fisher Scientific), and the cells were cultured under conditions of 37° C. and 5% CO₂ overnight, and then a cell suspension was prepared. The transfected 293T cell suspension was centrifuged to remove the supernatant, and a mouse anti-CLDN6 antibody (clone number: B1 or C7) or a mouse IgG1 control antibody (R&D Systems, Inc.) was then added and suspended to a final concentration of 30 μg/mL, 10 μg/mL, 3.3 μg/mL, or 1.1 μg/mL, and the resultant was left to stand at 4° C. for 1 hour. […] In each graph in FIG. 11, the ordinate represents FITC fluorescence intensity indicating the amount of the binding antibody and the abscissa represents antibody concentrations.

Experiment [3] has as its target T3, human CLDN6. Briefly: flow cytometry on transiently transfected 293T cells, 0.8-100 nM. As to the method: (§3) The binding activity of the humanized anti-CLDN6 antibody produced in Example 10 to human CLDN6 and its family molecules, CLDN3, CLDN4, and CLDN9, was evaluated by using a flow cytometry method. Used were 293T cells transiently transfected in the same manner as in Example 7-1. To cells into which a human CLDN6 or human CLDN9 gene had been transferred, the humanized anti-CLDN6 antibody H1L1, H2L2, H1L3, H2L4, or H3L3, or a human IgG1 control antibody (Calbiochem) was added and suspended to a final concentration of 100 nM, 20 nM, 4 nM, or 0.8 nM, and the resultant was left to stand at 4° C. for 30 minutes. To cells into which a human CLDN3 or human CLDN4 gene, or an empty vector had been transferred, the humanized anti-CLDN6 antibody H1L1, H2L2, H1L3, H2L4, or H3L3 was added and suspended to a final concentration of 100 nM, and the resultant was left to stand at 4° C. for 30 minutes. The cells were washed with Dulbecco's phosphate buffered saline (Sigma-Aldrich Co. LLC) containing 5% fetal bovine serum (Hyclone) (hereinafter, referred to as 5% FBS-containing PBS), and FITC AffiniPureF (ab′)2 Fragment Goat Anti-Human IgG (H+L) (Jackson ImmunoResearch Laboratories Inc.) 150-fold diluted with 5% FBS-containing PBS was then added thereto, and the cells were suspended and left to stand at 4° C. for 30 minutes. After washing with 5% FBS-containing PBS, detection was carried out by using a flow cytometer (FC500; Beckman Coulter, Inc.). Data analysis was carried out by using FlowJo (Tree Star, Inc.), and mean fluorescence intensity (MFI) of FITC, which indicates the amount of the binding antibody, was calculated. […] In each graph in FIG. 13, the abscissa represents antibody concentrations and the ordinate represents MFI.

Experiment [4] deals with T4, human CLDN9. Described as above. As to the method: as §3

B1: mouse anti-CLDN6 antibody B1 (antibody, V domains shown)
VH: EVQLQQSGPELVKPGASVKISCKTSGYTFTEYTMHWVQQSHGKSLEWIGGVNPNSGDTSYNQKFKGKATLTVDKSSSTAYMELRSLTSEDSAVYYCARPGGYDVGYYAMDYWGQGTSVTVSS
VL: DIQMTQTASSLSASLGDRVTISCRASQDINNYLNWYQQKPDGTVKLLIYFTSRLHSGVPSRFSGSGSGTHYSLTITNLEQEDIATYFCQQGYPLPWTFGGGTKLEIK
notes: Mouse monoclonal antibody purified from hybridoma 218B1 culture supernatant; also called B1 antibody; 218B1
For the molecule B1, the binding result with human CLDN4 is given as “no binding (tested: 30 µg/mL (highest concentration tested))”; with human CLDN3, “no binding (tested: 30 µg/mL (highest concentration tested))”; with human CLDN6 [1] it was “binds”; in the experiment with human CLDN9 [2] it was “binds”.

B2: humanized anti-CLDN6 antibody H1L3 (antibody, human IgG1, kappa, L234A L235A, V domains shown)
VH: QVQLVQSGAEVKKPGASVKVSCKASGYTFTEYTMHWVRQAPGQGLEWMGGVNPNSGDTSYAQKFQGRVTITADTSTSTAYMELSSLRSEDTAVYYCARPGGYDVGYYAMDYWGQGTLVTVSS
VL: DIQMTQSPSSLSASVGDRVTITCRASQDINNYLNWYQQKPGGAVKLLIYFTSRLHSGVPSRFSGSGSGTDYTLTISSLQPEDFATYYCQQGYPLPWTFGGGTKVEIKR
notes: Human IgG1 LALA heavy chain and human kappa light chain; also called H1L3 antibody; hH1 + hL3
Consider B2, for which the binding result was “no binding (tested: 100 nM)” in the experiment with human CLDN4, “no binding (tested: 100 nM)” in the experiment with human CLDN3, “binds” with human CLDN6 [3] and “binds” with human CLDN9 [4].

B3: humanized anti-CLDN6 antibody H2L2 (antibody, human IgG1, kappa, L234A L235A, V domains shown)
VH: EVQLVQSGAEVKKPGASVKVSCKTSGYTFTEYTMHWVRQAPGKSLEWMGGVNPNSGDTSYAQKFQGRVTITADTSTSTAYMELSSLRSEDTAVYYCARPGGYDVGYYAMDYWGQGTLVTVSS
VL: DIQMTQSPSSLSASVGDRVTITCRASQDINNYLNWYQQKPGKAVKLLIYFTSRLHSGVPSRFSGSGSGTHYTLTISSLQPEDFATYYCQQGYPLPWTFGQGTKVEIKR
notes: Human IgG1 LALA heavy chain and human kappa light chain; also called H2L2 antibody; hH2 + hL2
Consider B3, for which the binding result in the experiment with human CLDN4 is on record as “no binding (tested: 100 nM)”; with human CLDN3, “no binding (tested: 100 nM)”; in the experiment with human CLDN6 [3], “binds”; in the experiment with human CLDN9 [4] it was “binds”.

B4: humanized anti-CLDN6 antibody H2L4 (antibody, human IgG1, kappa, L234A L235A, V domains shown)
VH: EVQLVQSGAEVKKPGASVKVSCKTSGYTFTEYTMHWVRQAPGKSLEWMGGVNPNSGDTSYAQKFQGRVTITADTSTSTAYMELSSLRSEDTAVYYCARPGGYDVGYYAMDYWGQGTLVTVSS
VL: DIQMTQSPSSLSASVGDRVTITCRASQDINNYLNWYQQKPGGAVKLLIYFTSRLHSGVPSRFSGSGSGTDYTLTISSLQPEDFATYYCQQGNTLPWTFGGGTKVEIKR
notes: Human IgG1 LALA heavy chain and human kappa light chain; also called H2L4 antibody; hH2 + hL4
B4: the binding result with human CLDN4 is “no binding (tested: 100 nM)”; in the experiment with human CLDN3 it was “no binding (tested: 100 nM)”; with human CLDN6 [3] it was “binds”; with human CLDN9 [4], “binds”.

B5: humanized anti-CLDN6 antibody H1L1 (antibody, human IgG1, kappa, L234A L235A, V domains shown)
VH: QVQLVQSGAEVKKPGASVKVSCKASGYTFTEYTMHWVRQAPGQGLEWMGGVNPNSGDTSYAQKFQGRVTITADTSTSTAYMELSSLRSEDTAVYYCARPGGYDVGYYAMDYWGQGTLVTVSS
VL: DIQMTQSPSSLSASVGDRVTITCRASQDINNYLNWYQQKPGKAPKLLIYFTSRLHSGVPSRFSGSGSGTDYTLTISSLQPEDFATYYCQQGYPLPWTFGQGTKVEIKR
notes: Human IgG1 LALA heavy chain and human kappa light chain; also called H1L1 antibody; hH1 + hL1
As for B5, the binding result is reported as “no binding (tested: 100 nM)” with human CLDN4, “no binding (tested: 100 nM)” with human CLDN3, “binds” with human CLDN6 [3] and “binds” with human CLDN9 [4].

B6: humanized anti-CLDN6 antibody H3L3 (antibody, human IgG1, kappa, L234A L235A, V domains shown)
VH: EVQLVQSGAEVKKPGASVKVSCKTSGYTFTEYTMHWVRQAPGQGLEWMGGVNPNSGDTSYAQKFQGRVTLTVDKSTSTAYMELSSLRSEDTAVYYCARPGGYDVGYYAMDYWGQGTLVTVSS
VL: DIQMTQSPSSLSASVGDRVTITCRASQDINNYLNWYQQKPGGAVKLLIYFTSRLHSGVPSRFSGSGSGTDYTLTISSLQPEDFATYYCQQGYPLPWTFGGGTKVEIKR
notes: Human IgG1 LALA heavy chain and human kappa light chain; also called H3L3 antibody; hH3 + hL3
On to B6, for which the binding result with human CLDN4 is “no binding (tested: 100 nM)”; in the experiment with human CLDN3, “no binding (tested: 100 nM)”; with human CLDN6 [3], “binds”; with human CLDN9 [4], “binds”.
